According to patent US20260347496 (published 2026):
Positions count from the first letter of the chain named. “And” between values parts separate entries of the source, which are not always exact repeats. Equal entries are not always repeated.

B1: huG14-109 (antibody, V domains shown)
VH: EVQLVESGGGLVKPGGSLRLSCAASGLTFSNYWGNWVRQAPGKGLEWVALIRLYSDNYAIHYAESVKGRFTISRDDSKSTVYLQMNSLKTEDTAVYYCTTGTDYWGQGTTVTVSS
VL: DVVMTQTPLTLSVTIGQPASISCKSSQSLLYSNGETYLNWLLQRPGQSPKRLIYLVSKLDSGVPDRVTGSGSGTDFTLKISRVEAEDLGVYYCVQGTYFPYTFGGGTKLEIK
B2: huG14-105 (antibody, V domains shown)
VH: B1 VH with G34M
VL: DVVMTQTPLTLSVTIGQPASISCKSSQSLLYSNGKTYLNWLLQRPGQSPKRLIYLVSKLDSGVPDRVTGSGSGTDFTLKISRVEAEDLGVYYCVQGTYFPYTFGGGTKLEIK
B3: huG14-137 (antibody, V domains shown)
VH: B1 VH with Y104N
VL: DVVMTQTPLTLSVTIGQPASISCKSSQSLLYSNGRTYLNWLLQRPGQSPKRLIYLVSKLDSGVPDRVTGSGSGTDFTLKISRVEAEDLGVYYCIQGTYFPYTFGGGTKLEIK
B4: huG14-127 (antibody, V domains shown)
VH: B1 VH with G34M, Y104N
VL: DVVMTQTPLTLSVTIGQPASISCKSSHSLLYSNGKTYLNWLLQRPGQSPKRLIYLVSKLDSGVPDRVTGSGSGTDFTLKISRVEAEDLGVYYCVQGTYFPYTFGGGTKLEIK
B5: huG14-121 (antibody, V domains shown)
VH: B1 VH
VL: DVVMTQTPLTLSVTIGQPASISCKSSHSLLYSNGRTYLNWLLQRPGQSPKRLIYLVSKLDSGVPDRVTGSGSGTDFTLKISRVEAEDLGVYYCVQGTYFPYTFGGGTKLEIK
B6: huG14-132 (antibody, V domains shown)
VH: B1 VH with G34M, Y104N
VL: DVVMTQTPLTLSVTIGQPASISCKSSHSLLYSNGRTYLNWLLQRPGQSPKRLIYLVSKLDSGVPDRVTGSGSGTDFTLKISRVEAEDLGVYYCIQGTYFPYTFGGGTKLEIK
B7: huG14-133 (antibody, V domains shown)
VH: B1 VH with Y104N
VL: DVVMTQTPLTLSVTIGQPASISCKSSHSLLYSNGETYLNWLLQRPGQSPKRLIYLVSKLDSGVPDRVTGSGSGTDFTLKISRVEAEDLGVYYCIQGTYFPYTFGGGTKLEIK
B8: huG14-120 (antibody, V domains shown)
VH: B1 VH
VL: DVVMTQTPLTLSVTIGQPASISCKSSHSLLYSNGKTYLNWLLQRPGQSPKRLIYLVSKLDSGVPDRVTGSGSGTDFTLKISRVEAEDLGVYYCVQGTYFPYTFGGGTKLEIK
B9: huG14-130 (antibody, V domains shown)
VH: B1 VH with G34M, Y104N
VL: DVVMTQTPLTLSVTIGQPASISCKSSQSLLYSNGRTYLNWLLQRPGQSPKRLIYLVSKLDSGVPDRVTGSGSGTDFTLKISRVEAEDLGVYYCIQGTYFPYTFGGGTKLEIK
B10: huG14-118 (antibody, V domains shown)
VH: B1 VH with G34M
VL: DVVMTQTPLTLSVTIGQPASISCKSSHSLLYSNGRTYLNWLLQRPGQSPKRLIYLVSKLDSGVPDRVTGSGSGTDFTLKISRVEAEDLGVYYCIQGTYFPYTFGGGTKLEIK
B11: huG14-134 (antibody, V domains shown)
VH: B1 VH with Y104N
VL: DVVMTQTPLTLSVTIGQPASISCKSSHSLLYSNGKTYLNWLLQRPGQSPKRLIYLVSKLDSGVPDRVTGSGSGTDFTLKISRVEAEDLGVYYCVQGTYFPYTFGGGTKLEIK
B12: huG14-119 (antibody, V domains shown)
VH: B1 VH
VL: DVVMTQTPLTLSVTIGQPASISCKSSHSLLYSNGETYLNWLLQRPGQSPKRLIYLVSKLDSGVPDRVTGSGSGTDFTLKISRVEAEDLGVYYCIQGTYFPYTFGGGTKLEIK
B13: huG14-117 (antibody, V domains shown)
VH: B1 VH with G34M
VL: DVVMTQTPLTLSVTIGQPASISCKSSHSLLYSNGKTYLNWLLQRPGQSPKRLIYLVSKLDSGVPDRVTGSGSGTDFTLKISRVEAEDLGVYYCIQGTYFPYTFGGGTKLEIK
B14: huG14-122 (antibody, V domains shown)
VH: B1 VH
VL: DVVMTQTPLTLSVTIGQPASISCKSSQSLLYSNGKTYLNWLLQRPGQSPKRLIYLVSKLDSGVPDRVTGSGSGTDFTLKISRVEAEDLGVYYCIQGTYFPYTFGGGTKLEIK
B15: huG14-136 (antibody, V domains shown)
VH: B1 VH with Y104N
VL: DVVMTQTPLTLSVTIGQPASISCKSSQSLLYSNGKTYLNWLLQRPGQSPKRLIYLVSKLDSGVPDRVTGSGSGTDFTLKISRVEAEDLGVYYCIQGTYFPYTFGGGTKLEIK
B16: huG14-114 (antibody, V domains shown)
VH: B1 VH with G34M
VL: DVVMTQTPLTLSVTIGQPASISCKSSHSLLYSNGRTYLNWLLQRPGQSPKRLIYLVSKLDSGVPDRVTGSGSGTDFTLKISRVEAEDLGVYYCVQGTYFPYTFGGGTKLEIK
B17: huG14-138 (antibody, V domains shown)
VH: B1 VH with Y104N
VL: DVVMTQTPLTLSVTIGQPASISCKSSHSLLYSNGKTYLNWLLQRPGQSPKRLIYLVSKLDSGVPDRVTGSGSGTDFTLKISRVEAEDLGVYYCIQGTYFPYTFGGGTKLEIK
B18: huG14-115 (antibody, V domains shown)
VH: B1 VH with G34M
VL: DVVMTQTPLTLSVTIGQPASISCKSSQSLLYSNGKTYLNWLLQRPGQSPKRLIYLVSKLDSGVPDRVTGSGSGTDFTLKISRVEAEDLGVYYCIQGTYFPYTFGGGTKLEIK
B19: huG14-128 (antibody, V domains shown)
VH: B1 VH with G34M, Y104N
VL: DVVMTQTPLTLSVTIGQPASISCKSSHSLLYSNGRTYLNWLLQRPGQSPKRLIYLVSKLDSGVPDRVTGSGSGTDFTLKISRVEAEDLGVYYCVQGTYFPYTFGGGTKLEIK
B20: huG14-123 (antibody, V domains shown)
VH: B1 VH
VL: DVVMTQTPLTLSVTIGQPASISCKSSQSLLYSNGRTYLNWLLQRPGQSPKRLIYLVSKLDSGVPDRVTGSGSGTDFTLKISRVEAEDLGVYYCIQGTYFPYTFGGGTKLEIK
B21: huG14-139 (antibody, V domains shown)
VH: B1 VH with Y104N
VL: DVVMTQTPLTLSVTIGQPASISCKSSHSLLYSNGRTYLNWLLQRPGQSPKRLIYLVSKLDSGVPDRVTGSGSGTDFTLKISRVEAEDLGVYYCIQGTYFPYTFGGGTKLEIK
B22: huG14-129 (antibody, V domains shown)
VH: B1 VH with G34M, Y104N
VL: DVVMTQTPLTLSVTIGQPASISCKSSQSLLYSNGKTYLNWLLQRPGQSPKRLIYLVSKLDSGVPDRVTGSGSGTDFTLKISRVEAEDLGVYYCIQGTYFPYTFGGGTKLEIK
B23: huG14-112 (antibody, V domains shown)
VH: B1 VH with G34M
VL: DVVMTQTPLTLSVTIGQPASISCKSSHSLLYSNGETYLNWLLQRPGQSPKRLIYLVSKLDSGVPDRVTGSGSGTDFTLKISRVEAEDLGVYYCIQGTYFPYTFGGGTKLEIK
B24: huG14-135 (antibody, V domains shown)
VH: B1 VH with Y104N
VL: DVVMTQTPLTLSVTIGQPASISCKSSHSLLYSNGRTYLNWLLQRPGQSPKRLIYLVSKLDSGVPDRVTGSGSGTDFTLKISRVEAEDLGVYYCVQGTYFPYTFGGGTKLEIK
B25: huG14-116 (antibody, V domains shown)
VH: B1 VH with G34M
VL: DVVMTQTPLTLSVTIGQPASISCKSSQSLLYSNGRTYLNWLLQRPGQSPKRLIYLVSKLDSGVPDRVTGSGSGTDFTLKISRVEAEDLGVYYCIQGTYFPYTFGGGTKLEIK
B26: huG14-126 (antibody, V domains shown)
VH: B1 VH with G34M, Y104N
VL: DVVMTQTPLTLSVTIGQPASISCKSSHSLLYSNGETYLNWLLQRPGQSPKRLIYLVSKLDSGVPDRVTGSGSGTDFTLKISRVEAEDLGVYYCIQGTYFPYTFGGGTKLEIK
B27: huG14-113 (antibody, V domains shown)
VH: B1 VH with G34M
VL: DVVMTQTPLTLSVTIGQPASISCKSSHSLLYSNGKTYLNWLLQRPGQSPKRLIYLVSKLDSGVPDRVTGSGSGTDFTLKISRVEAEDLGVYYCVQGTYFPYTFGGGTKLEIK
B28: huG14-225 (antibody, V domains shown)
VH: B1 VH with Y104N
VL: DVVMTQSPLSLPVTPGRPASISCKSSHSLLYSNGETYLNWLLQKPGQSPQRLIYLVSKLDSGVPDRFSGSGSGTDFTLKISRVEAEDLGVYYCIQGTYFPYTFGQGTKLEIK
B29: huG14-231 (antibody, V domains shown)
VH: B1 VH with Y104N
VL: B28 VL with E35R
B30: huG14-209 (antibody, V domains shown)
VH: B1 VH with G34M
VL: B28 VL with E35K
B31: huG14-204 (antibody, V domains shown)
VH: B1 VH with G34M
VL: B28 VL
B32: huG14-228 (antibody, V domains shown)
VH: B1 VH with Y104N
VL: B28 VL with H27Q, E35K
B33: huG14-229 (antibody, V domains shown)
VH: B1 VH with Y104N
VL: B28 VL with H27Q, E35R
B34: huG14-227 (antibody, V domains shown)
VH: B1 VH with Y104N
VL: B28 VL with E35R, I94V
B35: huG14-233 (antibody, V domains shown)
VH: B1 VH with Y104N
VL: B28 VL with S10R, E35R, Q105I
B36: huG14-220 (antibody, V domains shown)
VH: B1 VH with G34M, Y104N
VL: B28 VL with E35R, I94V
B37: huG14-208 (antibody, V domains shown)
VH: B1 VH with G34M
VL: B28 VL with H27Q, E35R
B38: huG14-223 (antibody, V domains shown)
VH: B1 VH with G34M, Y104N
VL: B28 VL with E35K
B39: huG14-218 (antibody, V domains shown)
VH: B1 VH with G34M, Y104N
VL: B28 VL
B40: huG14-206 (antibody, V domains shown)
VH: B1 VH with G34M
VL: B28 VL with E35R, I94V
B41: huG14-207 (antibody, V domains shown)
VH: B1 VH with G34M
VL: B28 VL with H27Q, E35K
B42: huG14-205 (antibody, V domains shown)
VH: B1 VH with G34M
VL: B28 VL with E35K, I94V
B43: huG14-212 (antibody, V domains shown)
VH: B1 VH
VL: B28 VL with E35K, I94V
B44: huG14-221 (antibody, V domains shown)
VH: B1 VH with G34M, Y104N
VL: B28 VL with H27Q, E35K
B45: huG14-213 (antibody, V domains shown)
VH: B1 VH
VL: B28 VL with E35R, I94V
B46: huG14-211 (antibody, V domains shown)
VH: B1 VH
VL: B28 VL
B47: huG14-210 (antibody, V domains shown)
VH: B1 VH with G34M
VL: B28 VL with E35R
B48: huG14-224 (antibody, V domains shown)
VH: B1 VH with G34M, Y104N
VL: B28 VL with E35R
B49: huG14-226 (antibody, V domains shown)
VH: B1 VH with Y104N
VL: B28 VL with E35K, I94V
B50: huG14-215 (antibody, V domains shown)
VH: B1 VH
VL: B28 VL with H27Q, E35R
B51: huG14-214 (antibody, V domains shown)
VH: B1 VH
VL: B28 VL with H27Q, E35K
B52: huG14-219 (antibody, V domains shown)
VH: B1 VH with G34M, Y104N
VL: B28 VL with E35K, I94V
B53: huG14-222 (antibody, V domains shown)
VH: B1 VH with G34M, Y104N
VL: B28 VL with H27Q, E35R

Molecular target: CD24(27-56aa)-GST NEOX-4 (human)
Sequence (chain, as listed by the source): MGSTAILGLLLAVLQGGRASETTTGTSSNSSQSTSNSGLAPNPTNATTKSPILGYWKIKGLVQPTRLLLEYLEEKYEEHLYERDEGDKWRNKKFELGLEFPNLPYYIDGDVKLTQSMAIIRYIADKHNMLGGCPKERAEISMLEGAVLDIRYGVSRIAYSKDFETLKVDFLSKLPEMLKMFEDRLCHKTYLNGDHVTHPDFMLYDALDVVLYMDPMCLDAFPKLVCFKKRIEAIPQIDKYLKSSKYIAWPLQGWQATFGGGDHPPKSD
Experiment: ELISA

Binder	EC50 [ng/mL]
B1	10.9
B2	20.6

Molecular target: CD24(27-56aa)-GST NEOX-4 (human)
Experiment: ELISA
Remark: another data set of the same source

Binder	EC50
B3	3.87 ng/mL
B4	2.97 ng/mL
B5	7.37 ng/mL and 7.04 ng/mL
B6	4.72 ng/mL
B7	5.66 ng/mL
B8	6.23 ng/mL
B9	3.89 ng/mL
B10	4.83 ng/mL
B11	3.83 ng/mL
B12	8.93 ng/mL
B13	7.27 ng/mL
B14	7.12 ng/mL
B15	4.05 ng/mL
B16	10.4 ng/mL
B17	3.28 ng/mL
B18	12.9 ng/mL
B19	4.12 ng/mL
B20	3.86 ng/mL
B21	3.17 ng/mL
B22	4.09 ng/mL
B23	12.1 ng/mL
B24	3.87 ng/mL
B25	11.2 ng/mL
B26	3.93 ng/mL
B27	11.9 ng/mL

Molecular target: CD24(27-56aa)-GST NEOX-4 (human)
Experiment: ELISA
Remark: another data set of the same source

Binder	EC50 [ng/mL]
B28	6.28
B29	8.25
B30	4.13
B31	6.67
B32	9.88
B33	9.1
B34	7.63
B35	8.41
B36	5.17
B37	4.02
B38	4.82
B39	4.71
B40	4.92
B41	5.71
B42	6.28
B43	3.19
B44	5.93
B45	3.29
B46	3.34
B47	4.26
B48	6.18
B49	10.7
B50	3.41
B51	3.06
B52	5.69
B53	4.91
